Data on three molecules can be found in PMC4553094 (Thrombosis research, 2015).

The target in assay [1] is Glycoprotein Ib-IX complex captured from platelet lysates (human (endogenous in platelets)) (UniProt P07359). The experiment in a line: biomembrane force probe.
For assay [2], the target named is T1, Human placenta type III collagen (human, UniProt P02461 154-1221, covalently modified with maleimide-PEG3500-NHS for coupling to beads).
T1 sequence (looked up): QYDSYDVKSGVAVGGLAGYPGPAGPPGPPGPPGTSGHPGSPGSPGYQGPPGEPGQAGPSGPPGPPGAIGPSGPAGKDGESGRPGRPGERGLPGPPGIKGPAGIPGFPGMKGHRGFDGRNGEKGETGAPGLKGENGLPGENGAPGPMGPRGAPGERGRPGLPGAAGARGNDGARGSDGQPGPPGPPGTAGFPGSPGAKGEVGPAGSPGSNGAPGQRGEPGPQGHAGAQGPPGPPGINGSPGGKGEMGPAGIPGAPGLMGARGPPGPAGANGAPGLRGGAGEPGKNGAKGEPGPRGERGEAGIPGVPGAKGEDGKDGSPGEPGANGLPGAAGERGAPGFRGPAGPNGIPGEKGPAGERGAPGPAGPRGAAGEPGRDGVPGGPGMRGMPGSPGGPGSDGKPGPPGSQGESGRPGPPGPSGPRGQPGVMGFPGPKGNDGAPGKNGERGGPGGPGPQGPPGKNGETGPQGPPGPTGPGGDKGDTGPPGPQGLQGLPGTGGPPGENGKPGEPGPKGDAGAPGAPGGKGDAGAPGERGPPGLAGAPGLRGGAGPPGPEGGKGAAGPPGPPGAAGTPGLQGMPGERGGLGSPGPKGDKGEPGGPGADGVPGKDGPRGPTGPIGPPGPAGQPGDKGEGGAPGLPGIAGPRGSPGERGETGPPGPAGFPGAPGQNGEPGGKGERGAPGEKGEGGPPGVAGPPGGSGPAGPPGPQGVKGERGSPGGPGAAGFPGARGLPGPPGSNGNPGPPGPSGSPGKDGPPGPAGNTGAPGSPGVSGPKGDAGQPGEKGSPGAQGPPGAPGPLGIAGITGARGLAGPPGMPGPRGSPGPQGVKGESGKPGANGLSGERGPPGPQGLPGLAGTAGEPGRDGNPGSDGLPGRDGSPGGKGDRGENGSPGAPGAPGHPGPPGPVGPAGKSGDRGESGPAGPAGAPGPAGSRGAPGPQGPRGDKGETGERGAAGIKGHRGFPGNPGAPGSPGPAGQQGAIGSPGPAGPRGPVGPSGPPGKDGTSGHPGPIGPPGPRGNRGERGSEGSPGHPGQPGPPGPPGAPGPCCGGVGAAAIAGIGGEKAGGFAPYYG
The assay is described as follows: biomembrane force probe.

Turning to “Plasma von Willebrand factor (from UniProt P04275 764-2813) (natural protein)”, the bond lifetime at the peak force in assay [1] worked out at 3.1 s.

With “Recombinant wild-type monomeric VWF 1238-A1 (residues 1238-1471) (from UniProt P04275 1238-1471) (domain or fragment)”, the bond lifetime at the peak force in assay [1] was found to be 1.5 s.

B1: Recombinant wild-type monomeric VWF A3 domain (residues 1687-1874) (domain or fragment)
chain: SQPLDVILLLDGSSSFPASYFDEMKSFAKAFISKANIGPRLTQVSVLQYGSITTIDVPWNVVPEKAHLLSLVDVMQREGGPSQIGDALGFAVRYLTSEMHGARPGASKAVVILVTDVSVDSVDAAADAARSNRVTVFPIGIGDRYDAAQLRILAGPAGDSNVVKLQRIEDLPTMVTLGNSFLHKLCSG
As for B1, the “affinity to collagen relative to that of A1” value in assay [2] stood at 10 times.
